Source: patent US20250243277A1 (AVACTA LIFE SCIENCES, published 2025)

target: T1, human PD-L1-Fc (R&D Systems) (human, UniProt Q9NZQ7 19-239); experiment: soluble Affimer ELISA
T1 construct: Bought from R&D Systems; Biotinylated in-house for the phage selection; also called huPD-L1-Fc; human PD-L1-Fc antigen; not shown: Fc part of the bought fusion
T1 sequence (Q9NZQ7 19-239 limits assumed): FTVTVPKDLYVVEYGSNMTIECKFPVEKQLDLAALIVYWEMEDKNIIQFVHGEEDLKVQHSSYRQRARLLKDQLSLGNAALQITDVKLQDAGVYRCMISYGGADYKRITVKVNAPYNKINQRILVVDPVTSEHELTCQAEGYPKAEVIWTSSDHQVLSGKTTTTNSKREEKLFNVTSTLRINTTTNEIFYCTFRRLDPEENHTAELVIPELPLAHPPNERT

| Binder | binding result |
| --- | --- |
| Clone 87 (designed binder, His-tagged) MIPGGLSEAKPATPEIQEIVDKVKPQLEEKTGETYGKLEAVQYKTQVVKRLHLPQYPGTNYYIKVRAGDNKYMHLKVFKSLGNIEPITDLEDLVLTGYQVDKNKDDELTGF | binds |
| Clone 72 (designed binder, His-tagged) MIPGGLSEAKPATPEIQEIVDKVKPQLEEKTGETYGKLEAVQYKTQVVIHEPEIWWYGTNYYIKVRAGDNKYMHLKVFKSLHKADRQKEREDLVLTGYQVDKNKDDELTGF | binds |
| Clone 99 (designed binder, His-tagged) MIPGGLSEAKPATPEIQEIVDKVKPQLEEKTGETYGKLEAVQYKTQVDTWGERLHYPGTNYYIKVRAGDNKYMHLKVFKSLWHKPKDNIIEDLVLTGYQVDKNKDDELTGF | binds |
| Clone 71 (designed binder, His-tagged) MIPGGLSEAKPATPEIQEIVDKVKPQLEEKTGETYGKLEAVQYKTQVVASFPEISWYGTNYYIKVRAGDNKYMHLKVFKSLKNYPKTGVTEDLVLTGYQVDKNKDDELTGF | binds |
| Clone 88 (designed binder, His-tagged) MIPGGLSEAKPATPEIQEIVDKVKPQLEEKTGETYGKLEAVQYKTQVVAVHAPQYAPGTNYYIKVRAGDNKYMHLKVFKSLWSEKVAVFPEDLVLTGYQVDKNKDDELTGF | binds |
| Clone 90 (designed binder, His-tagged) MIPGGLSEAKPATPEIQEIVDKVKPQLEEKTGETYGKLEAVQYKTQVVLGWWFGINQGTNYYIKVRAGDNKYMHLKVFKSLAHLQYEWGGEDLVLTGYQVDKNKDDELTGF | binds |
| Clone 73 (designed binder, His-tagged) MIPGGLSEAKPATPEIQEIVDKVKPQLEEKTGETYGKLEAVQYKTQVVDWGWGIPWVGTNYYIKVRAGDNKYMHLKVFKSLWLYGVKRLPEDLVLTGYQVDKNKDDELTGF | binds |
| Clone 8 (designed binder, His-tagged) MIPGGLSEAKPATPEIQEIVDKVKPQLEEKTGETYGKLEAVQYKTQVVPLPDPIDWVGTNYYIKVRAGDNKYMHLKVFKSLHIHLNQIYREDLVLTGYQVDKNKDDELTGF | binds |
| Clone 70 (designed binder, His-tagged) MIPGGLSEAKPATPEIQEIVDKVKPQLEEKTGETYGKLEAVQYKTQVVIEEPSAFWWGTNYYIKVRAGDNKYMHLKVFKSLLRVRHSAYREDLVLTGYQVDKNKDDELTGF | binds |
| Clone 98 (designed binder, His-tagged) MIPGGLSEAKPATPEIQEIVDKVKPQLEEKTGETYGKLEAVQYKTQVDWAIWRDKKVGTNYYIKVRAGDNKYMHLKVFKSLPIFEIVREGEDLVLTGYQVDKNKDDELTGF | binds |
| Clone 74 (designed binder, His-tagged) MIPGGLSEAKPATPEIQEIVDKVKPQLEEKTGETYGKLEAVQYKTQVVRRWELWSFQGTNYYIKVRAGDNKYMHLKVFKSLWQEHTDSVEEDLVLTGYQVDKNKDDELTGF | binds |
| Clone 93 (designed binder, His-tagged) MIPGGLSEAKPATPEIQEIVDKVKPQLEEKTGETYGKLEAVQYKTQVDQWGVDLVYTGTNYYIKVRAGDNKYMHLKVFKSLIVKRAVILWEDLVLTGYQVDKNKDDELTGF | binds |
| Clone 92 (designed binder, His-tagged) MIPGGLSEAKPATPEIQEIVDKVKPQLEEKTGETYGKLEAVQYKTQVDIDDDLWSGTNYYIKVRAGDNKYMHLKVFKSLILWPTKPEREDLVLTGYQVDKNKDDELTGF | binds |
| Clone 69 (designed binder, His-tagged) MIPGGLSEAKPATPEIQEIVDKVKPQLEEKTGETYGKLEAVQYKTQVVYKVDNNNYQGTNYYIKVRAGDNKYMHLKVFKSLITWQLNQPREDLVLTGYQVDKNKDDELTGF | binds |
| Clone 97 (designed binder, His-tagged) MIPGGLSEAKPATPEIQEIVDKVKPQLEEKTGETYGKLEAVQYKTQVDELDDAVKYWGTNYYIKVRAGDNKYMHLKVFKSLWWKTISADFEDLVLTGYQVDKNKDDELTGF | binds |
| Clone 76 (designed binder, His-tagged) MIPGGLSEAKPATPEIQEIVDKVKPQLEEKTGETYGKLEAVQYKTQVVHDFTIRYPWGTNYYIKVRAGDNKYMHLKVFKSLEYHVTKRDQEDLVLTGYQVDKNKDDELTGF | binds |
| Clone 91 (designed binder, His-tagged) MIPGGLSEAKPATPEIQEIVDKVKPQLEEKTGETYGKLEAVQYKTQVVNQEHFRRFIGTNYYIKVRAGDNKYMHLKVFKSLNPWLHPQDFEDLVLTGYQVDKNKDDELTGF | binds |
| Clone 75 (designed binder, His-tagged) MIPGGLSEAKPATPEIQEIVDKVKPQLEEKTGETYGKLEAVQYKTQVVINQHENFKQGTNYYIKVRAGDNKYMHLKVFKSLHLFHGLWYIEDLVLTGYQVDKNKDDELTGF | binds |
| Clone 85 (designed binder, His-tagged) MIPGGLSEAKPATPEIQEIVDKVKPQLEEKTGETYGKLEAVQYKTQVVNDGKSLVLAGTNYYIKVRAGDNKYMHLKVFKSLRLWDDRVSGEDLVLTGYQVDKNKDDELTGF | binds |
| Clone 78 (designed binder, His-tagged) MIPGGLSEAKPATPEIQEIVDKVKPQLEEKTGETYGKLEAVQYKTQVVDQGWWENWAGTNYYIKVRAGDNKYMHLKVFKSLIWENNLRIHEDLVLTGYQVDKNKDDELTGF | binds |
| Clone 7 (designed binder, His-tagged) MIPGGLSEAKPATPEIQEIVDKVKPQLEEKTGETYGKLEAVQYKTQVVRQYYEWSWVGTNYYIKVRAGDNKYMHLKVFKSLFESPTEDNDEDLVLTGYQVDKNKDDELTGF | binds |
| Clone 83 (designed binder, His-tagged) MIPGGLSEAKPATPEIQEIVDKVKPQLEEKTGETYGKLEAVQYKTQVVIYHELWNFYGTNYYIKVRAGDNKYMHLKVFKSLDNNGDGNWQEDLVLTGYQVDKNKDDELTGF | binds |
| Clone 94 (designed binder, His-tagged) MIPGGLSEAKPATPEIQEIVDKVKPQLEEKTGETYGKLEAVQYKTQVDKVYLVWAWTGTNYYIKVRAGDNKYMHLKVFKSLFQKGSNKPEEDLVLTGYQVDKNKDDELTGF | binds |

target: T1, human PD-L1-Fc (R&D Systems); experiment: SPR (Biacore 8K), binding to PD-L1-Fc

| Binder | Kd [nM] | binding result |
| --- | --- | --- |
| Clone 80 D82A (designed binder, alanine mutant of Clone 80 made in E. coli) MIPGGLSEAKPATPEIQEIVDKVKPQLEEKTGETYGKLEAVQYKTQVVRRKHFPQWPGTNYYIKVRAGDNKYMHLKVFKSLALQPREVFQEDLVLTGYQVDKNKDDELTGF | 5.08 |  |
| Clone 80 P85A (designed binder, alanine mutant of Clone 80 made in E. coli) MIPGGLSEAKPATPEIQEIVDKVKPQLEEKTGETYGKLEAVQYKTQVVRRKHFPQWPGTNYYIKVRAGDNKYMHLKVFKSLDLQAREVFQEDLVLTGYQVDKNKDDELTGF | 2.53 |  |
| Clone 80 R50A (designed binder, alanine mutant of Clone 80 made in E. coli) MIPGGLSEAKPATPEIQEIVDKVKPQLEEKTGETYGKLEAVQYKTQVVRAKHFPQWPGTNYYIKVRAGDNKYMHLKVFKSLDLQPREVFQEDLVLTGYQVDKNKDDELTGF |  | no binding |
| Clone 80 H52A (designed binder, alanine mutant of Clone 80 made in E. coli) MIPGGLSEAKPATPEIQEIVDKVKPQLEEKTGETYGKLEAVQYKTQVVRRKAFPQWPGTNYYIKVRAGDNKYMHLKVFKSLDLQPREVFQEDLVLTGYQVDKNKDDELTGF | 38 |  |
| Clone 80 P57A (designed binder, alanine mutant of Clone 80 made in E. coli) MIPGGLSEAKPATPEIQEIVDKVKPQLEEKTGETYGKLEAVQYKTQVVRRKHFPQWAGTNYYIKVRAGDNKYMHLKVFKSLDLQPREVFQEDLVLTGYQVDKNKDDELTGF | 8.91 |  |
| Clone 80 Q84A (designed binder, alanine mutant of Clone 80 made in E. coli) MIPGGLSEAKPATPEIQEIVDKVKPQLEEKTGETYGKLEAVQYKTQVVRRKHFPQWPGTNYYIKVRAGDNKYMHLKVFKSLDLAPREVFQEDLVLTGYQVDKNKDDELTGF | 0.61 |  |
| Clone 80 P54A (designed binder, alanine mutant of Clone 80 made in E. coli) MIPGGLSEAKPATPEIQEIVDKVKPQLEEKTGETYGKLEAVQYKTQVVRRKHFAQWPGTNYYIKVRAGDNKYMHLKVFKSLDLQPREVFQEDLVLTGYQVDKNKDDELTGF | 0.93 |  |
| Clone 80 F53A (designed binder, alanine mutant of Clone 80 made in E. coli) MIPGGLSEAKPATPEIQEIVDKVKPQLEEKTGETYGKLEAVQYKTQVVRRKHAPQWPGTNYYIKVRAGDNKYMHLKVFKSLDLQPREVFQEDLVLTGYQVDKNKDDELTGF |  | no binding |
| Clone 80 Q55A (designed binder, alanine mutant of Clone 80 made in E. coli) MIPGGLSEAKPATPEIQEIVDKVKPQLEEKTGETYGKLEAVQYKTQVVRRKHFPAWPGTNYYIKVRAGDNKYMHLKVFKSLDLQPREVFQEDLVLTGYQVDKNKDDELTGF | 1.69 |  |
| Clone 80 F89A (designed binder, alanine mutant of Clone 80 made in E. coli) MIPGGLSEAKPATPEIQEIVDKVKPQLEEKTGETYGKLEAVQYKTQVVRRKHFPQWPGTNYYIKVRAGDNKYMHLKVFKSLDLQPREVAQEDLVLTGYQVDKNKDDELTGF | 2.61 |  |
| Clone 80 L83A (designed binder, alanine mutant of Clone 80 made in E. coli) MIPGGLSEAKPATPEIQEIVDKVKPQLEEKTGETYGKLEAVQYKTQVVRRKHFPQWPGTNYYIKVRAGDNKYMHLKVFKSLDAQPREVFQEDLVLTGYQVDKNKDDELTGF | 1.48 |  |
